Data as given in CN111848803A.
Blank lines part the entries; values can stand above or below the molecule they belong to.

Columns and labels:
[1] = molecular target: GPC3ΔGPI-FLAG重组蛋白 (Homo sapiens (Human)) (UniProt P51654); assay: ELISA on coated GPC3ΔGPI-FLAG after 2 h treatment of the antibody at pH 10
[2] = molecular target: GPC3ΔGPI-FLAG重组蛋白 (Homo sapiens (Human)) (UniProt P51654); assay: ELISA on coated GPC3ΔGPI-FLAG after 2 h treatment of the antibody at pH 2
[3] = molecular target: mCherry-GPC3 (on stably expressing HEK293T cells) (UniProt P51654); assay: immunofluorescence colocalisation on HEK293T cells expressing mCherry-GPC3

抗原结合能力下降 (A450 against pH 7), antibody treated at pH 10 [1]: 28.2% | 抗原结合能力下降 (A450 against pH 7), antibody treated at pH 2 [2]: 47.9%
Molecule: HN3-hFc融合抗体 (Fc fusion)

抗原结合能力下降 (A450 against pH 7), antibody treated at pH 10 [1]: 14.4% | 抗原结合能力下降 (A450 against pH 7), antibody treated at pH 2 [2]: 26.1% | 皮尔森相关系数 (Pearson correlation of mCherry and Alexa Fluor 488 signals) [3]: 0.94
B1: 纳米抗体G10 (G10-His, GPC3 nanobody) (VHH, not shown: small tags and cut ends)
VHH: QVQLVESGGALVQPGGSLRLSCAASGMTGIFWRLRWYRQAPGKEREWVCGISQLPTPASYEDSVKGRFTCSRDDARNTVYLQLNSLKPEDTAVYYCAAANVLPGLPAELPIYWGQGTQVTVSS
